Reference: PMC11602913 (EJNMMI Radiopharmacy and Chemistry, 2024)

Tests used:
[1] = DOTA and its derivatives; ref Mirzadeh et al. [1993]; Bauer et al. [2024]; cited from earlier work
Excerpt: (§1) The well-known chelator DOTA and its derivatives tend to lose up to 40% of ^212Bi from its ^212Pb-complexes due to β^–-conversion accompanied by 38% conversion electrons and a cascade of Auger-Meitner electrons (Mirzadeh et al. [1993]; Bauer et al. [2024]). […] PSC-PEG2-TOC (VMT-α-NET) is a somatostatin receptor subtype 2 (SSTR2) targeting peptide of very high stability for the treatment of neuroendocrine tumours ...

[2] = test system: somatostatin receptor subtype 2 (SSTR2); settings: ref Li et al. [2023]; cited from earlier work
Excerpt: as §1

[3] = Stability of the 212Pb-labelled product at room temperature (radio-TLC); assay type: physicochemical
Experimental: Since the radiolysis and alpha decay is often discussed as fatal for the radiolabelled molecules in solution (Roscher et al. [2020]), the stability of the ^212Pb-labelled product was tested at room temperature. A TLC sample was taken from the product vial 4 h after radiosynthesis. Right after development of the TLC strip, > 20% of activity was found as unbound activity at the front of the TLC (Fig. S3). […] The activity at the front of the TLC was mainly due to free ^208Tl, which is reasonable due to 36% direct alpha decay from ^212Bi.
RCP was monitored by thin-layer chromatography (TLC) on iTLC-SG plates (Agilent, Santa Clara, California, USA). Measurement of the radionuclidic purity (RNP) and evaluation of the radio-TLC and was performed with a thin-layer scanner (MiniScanPRO + , Eckert&Ziegler Eurotope GmbH, Berlin, Germany) equipped with a Model 43–2 alpha detector ZnS(Ag) scintillator (Ludlum Measurements, Sweetwater, Texas, USA) and a built-in multi-channel analyzer for gamma spectroscopy.

[4] = test system: neuroendocrine tumours (NET); assay: Individual patient application of the 212Pb-labelled peptide; assay type: in vivo, human; settings: patients, doses of 1–1.5 MBq/kg
Experimental: The precursor concentration (0.1 µg/MBq) results in a maximum mass of 50 µg (31.7 nmol) for 500 MBq ^212Pb-labelled peptide, which is half to the mass used for routine ^177Lu-preparations with 5000 MBq (Brogsitter et al. [2017]). At this concentration, any ^212Bi generated during the reaction time by free ^212Pb is rebound by the precursor (Li et al. [2023]). Typically, doses of 1–1.5 MBq/kg were administered per patient. […] The detailed results of patient treatments will be discussed in a further publication.

O=C(O)CN1CCN(CC(=O)O)CCN(CC(=O)O)CCN(CC(=O)O)CC1 [DOTA]
loss of 212Bi from 212Pb-complexes due to β−-conversion [1]: up to 40%

PSC-PEG2-TOC [VMT-α-NET]
renal excretion [2]: fast renal excretion
tumour accumulation [2]: rapid tumour accumulation
tumour retention [2]: high tumour retention

[^212Pb]Pb-PSC-PEG2-TOC [[^212Pb]Pb-VMT-α-NET]
free 212Bi together with free 208Tl daughter nuclides observed in the TLCs ([3]; 4 h after radiosynthesis, radio-TLC): up to 20%
spot for unbound radionuclides on TLC ([3]; product vial at room temperature, TLC sample taken 4 h after radiosynthesis, measured 10 h after development of the TLC strip, iTLC-SG, citrate eluant (Fig. S4)): below 5%
unbound activity at the front of the TLC ([3]; product vial at room temperature, TLC sample taken 4 h after radiosynthesis, measured right after development of the TLC strip, iTLC-SG, citrate eluant (Fig. S3)): > 20%
radiolysis of the 212Pb-labelled product ([3]; room temperature, within 4 h after radiosynthesis, radio-TLC): no significant radiolysis
disease response in individual patient application [4]: stable disease for more than six months
